Measurements as given in PMC9890228 (The EMBO Journal, 2022).

Molecular target: T1, FANCD2 (human, UniProt Q9BXW9 1-1451)
T1 construct: The cryo-EM methods say only 'purified FANCD2'; The ubiquitination and deubiquitination reactions used N-terminally FLAG-tagged FANCD2; the functional rows use this molecule for it (for the USP1 rows in its K561-ubiquitinated form, D2Ub); Constructs as in Arkinson et al 2018 and Rennie et al 2020; also called D2^WT; source: Sf21 insect cells, purified (NiNTA, anion exchange, gel filtration)
T1 sequence (Q9BXW9 whole entry): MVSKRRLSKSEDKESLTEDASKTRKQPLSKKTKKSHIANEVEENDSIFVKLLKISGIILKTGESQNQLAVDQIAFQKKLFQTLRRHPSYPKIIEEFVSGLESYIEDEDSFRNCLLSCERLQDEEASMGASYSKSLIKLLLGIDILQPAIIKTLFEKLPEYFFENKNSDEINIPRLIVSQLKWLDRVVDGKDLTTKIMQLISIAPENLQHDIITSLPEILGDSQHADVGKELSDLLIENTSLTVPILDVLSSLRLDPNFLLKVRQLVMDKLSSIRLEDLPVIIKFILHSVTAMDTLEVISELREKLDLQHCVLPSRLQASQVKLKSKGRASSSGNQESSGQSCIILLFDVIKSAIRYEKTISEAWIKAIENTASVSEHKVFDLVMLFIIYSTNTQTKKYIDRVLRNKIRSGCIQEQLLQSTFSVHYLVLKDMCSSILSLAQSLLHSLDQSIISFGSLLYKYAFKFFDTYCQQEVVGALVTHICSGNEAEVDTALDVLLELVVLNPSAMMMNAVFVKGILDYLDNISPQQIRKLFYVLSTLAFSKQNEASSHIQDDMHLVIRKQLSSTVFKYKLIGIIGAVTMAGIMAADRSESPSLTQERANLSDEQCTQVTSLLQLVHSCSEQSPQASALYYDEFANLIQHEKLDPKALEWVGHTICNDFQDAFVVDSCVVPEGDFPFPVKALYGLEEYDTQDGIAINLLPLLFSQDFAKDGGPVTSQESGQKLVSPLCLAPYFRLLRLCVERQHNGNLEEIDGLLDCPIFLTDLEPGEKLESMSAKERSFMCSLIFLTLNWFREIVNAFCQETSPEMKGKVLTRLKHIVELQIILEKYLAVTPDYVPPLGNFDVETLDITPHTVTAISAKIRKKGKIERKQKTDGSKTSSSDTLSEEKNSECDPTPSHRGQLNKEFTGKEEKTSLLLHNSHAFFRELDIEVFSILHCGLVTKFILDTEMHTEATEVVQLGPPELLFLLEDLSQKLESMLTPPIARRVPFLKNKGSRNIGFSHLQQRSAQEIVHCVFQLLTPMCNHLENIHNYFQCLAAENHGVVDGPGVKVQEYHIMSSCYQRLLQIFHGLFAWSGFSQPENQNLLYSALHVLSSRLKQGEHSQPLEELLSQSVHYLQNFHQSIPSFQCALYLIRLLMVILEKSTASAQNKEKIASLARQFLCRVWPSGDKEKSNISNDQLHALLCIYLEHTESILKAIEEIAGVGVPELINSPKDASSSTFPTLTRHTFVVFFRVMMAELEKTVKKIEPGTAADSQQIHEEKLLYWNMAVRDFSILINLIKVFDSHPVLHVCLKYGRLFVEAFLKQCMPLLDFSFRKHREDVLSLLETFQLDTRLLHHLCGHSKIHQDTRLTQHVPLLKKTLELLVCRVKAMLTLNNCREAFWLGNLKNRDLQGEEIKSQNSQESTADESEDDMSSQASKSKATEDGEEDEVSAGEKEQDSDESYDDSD
Experiment: cryo-EM structure; ubiquitinated His6-V5-FANCI mixed with FANCD2 at 1:1 molar ratio, 61 bp dsDNA added at 1:1; 20 mM Tris pH 8.0, 150 mM NaCl, 2 mM DTT; 4.1 Å global resolution
Details: both partners purified

B1: FANCI (the FANCI chain of ubiquitinated His6‐V5‐FANCI) (natural protein, human, UniProt Q9NVI1 1-1328, looked up)
chain: MDQKILSLAAEKTADKLQEFLQTLREGDLTNLLQNQAVKGKVAGALLRAIFKGSPCSEEAGTLRRRKIYTCCIQLVESGDLQKEIASEIIGLLMLEAHHFPGPLLVELANEFISAVREGSLVNGKSLELLPIILTALATKKENLAYGKGVLSGEECKKQLINTLCSGRWDQQYVIQLTSMFKDVPLTAEEVEFVVEKALSMFSKMNLQEIPPLVYQLLVLSSKGSRKSVLEGIIAFFSALDKQHNEEQSGDELLDVVTVPSGELRHVEGTIILHIVFAIKLDYELGRELVKHLKVGQQGDSNNNLSPFSIALLLSVTRIQRFQDQVLDLLKTSVVKSFKDLQLLQGSKFLQNLVPHRSYVSTMILEVVKNSVHSWDHVTQGLVELGFILMDSYGPKKVLDGKTIETSPSLSRMPNQHACKLGANILLETFKIHEMIRQEILEQVLNRVVTRASSPISHFLDLLSNIVMYAPLVLQSCSSKVTEAFDYLSFLPLQTVQRLLKAVQPLLKVSMSMRDCLILVLRKAMFANQLDARKSAVAGFLLLLKNFKVLGSLSSSQCSQSLSVSQVHVDVHSHYNSVANETFCLEIMDSLRRCLSQQADVRLMLYEGFYDVLRRNSQLANSVMQTLLSQLKQFYEPKPDLLPPLKLEACILTQGDKISLQEPLDYLLCCIQHCLAWYKNTVIPLQQGEEEEEEEEAFYEDLDDILESITNRMIKSELEDFELDKSADFSQSTSIGIKNNICAFLVMGVCEVLIEYNFSISSFSKNRFEDILSLFMCYKKLSDILNEKAGKAKTKMANKTSDSLLSMKFVSSLLTALFRDSIQSHQESLSVLRSSNEFMRYAVNVALQKVQQLKETGHVSGPDGQNPEKIFQNLCDITRVLLWRYTSIPTSVEESGKKEKGKSISLLCLEGLQKIFSAVQQFYQPKIQQFLRALDVTDKEGEEREDADVSVTQRTAFQIRQFQRSLLNLLSSQEEDFNSKEALLLVTVLTSLSKLLEPSSPQFVQMLSWTSKICKENSREDALFCKSLMNLLFSLHVSYKSPVILLRDLSQDIHGHLGDIDQDVEVEKTNHFAIVNLRTAAPTVCLLVLSQAEKVLEEVDWLITKLKGQVSQETLSEEASSQATLPNQPVEKAIIMQLGTLLTFFHELVQTALPSGSCVDTLLKDLCKMYTTLTALVRYYLQVCQSSGGIPKNMEKLVKLSGSHLTPLCYSFISYVQNKSKSLNYTGEKKEKPAAVATAMARVLRETKPIPNLIFAIEQYEKFLIHLSKKSKVNLMQHMKLSTSRDFKIKGNILDMVLREDGEDENEEGTASEHGGQNKEPAKKKRKK
modifications: K523 isopeptide-linked to G76 of ubiquitin
notes: The FANCI chain of m1, written on its own for its contacts with FANCD2 in the structure; source: Sf21 insect cells, purified (NiNTA, anion exchange, gel filtration); ubiquitinated in vitro; not shown: His6, N-terminal, kept; V5, N-terminal, kept
B1: binds.
